Experimental data taken from the nanobody polyreactivity screen of Harvey et al. (2022).

Assay: yeast display, Sf9 membrane polyspecificity reagent, FACS + sequencing; frameworks hold sequencing errors
Outline: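 In a synthetic yeast display library (Saccharomyces cerevisiae BJ5465), nanobody expression was induced with galactose for 36–48 hours. FACS gates were set low and high (top ~1%) using anti-HA fluorescence for expression and streptavidin fluorescence for binding of the Sf9 membrane reagent. Each polyreactivity label is drawn from the gate of origin.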

QVQLVESGGGLVKEGGSLRLSCAASGNTIRVNAMGWYRQAPGKERELVAAISFSGGRTYYADSVKGRFTISRDNAKNTVYFQMNSLKPEDTGVYYCAALRRYPRPFIYGYWGQVTQVTVSS
polyreactivity (PSR sort gate): low polyreactivity

QVQLVESGGGLVQAGGSLRLSCAASGRTFYIYAMGWYRQAPGKERELVAAITRIDGSTYYADSVKGRFTISRDNAKNTVYLQMNSLKPEDTAVYYCAAEYGPGLTEGLYYYWGQGTQVTVSS
polyreactivity (PSR sort gate): high polyreactivity

QVQLVESGGGLVQAGGSLRLSCAASGSIFYSNAMGWYRQAPGKERELVAAITWSGGSTYYADSVKGRFTISRDNAKNTVYLQMNSLKPEDTAVYYCNARRNVRQTFGYEYWGQGTQVTVSS
polyreactivity (PSR sort gate): high polyreactivity

QVQLVESGGGLVQAGGSLRLSCAASGFTFDYYAMGWYRQAPGKERELVAAISKRGGSTYYADSVKGRFTISRDNAKNTVYLQMNSLKPEDTAVYYCAAASYSSPRTSSGNYWGQGTQVYVSS
polyreactivity (PSR sort gate): high polyreactivity

QVQLVESGGGLVQAGGRLRLSCAASGRIFDYNAMGWNRQAPWKERELVAAIRTSGGSTYYADSVKGRFTISRDNAKNTVYLPMISLKPEDNAVYYCAATSRRYRVRYDSWGQGTQVTVSS
polyreactivity (PSR sort gate): high polyreactivity

QVQLVESGGGLVQAGGSLRLSCAASGFIFEWNAMGWYRQAPGKERELVASITFGGGNTYYADSVKGRFTISRDNAKNTVYLQMNSLKPEDTAVYYCAADDGVTYRGIIFSYLGQGTQVTVSS
polyreactivity (PSR sort gate): low polyreactivity

QFQLVESGGGLVQAGGSLRLSCAASGRTFSGNTMGWYRQAPGKERELVAAITGRGGSTYYADSVKGRFTISRDNAKNTVYLQMNCLKPEDTAVYYCAALRYTFAGRFDYWGQGTQVTVSS
polyreactivity (PSR sort gate): high polyreactivity

HVQLVESGGGLVQAGGSLRLSCAASGFTFRRNAMGWYRQSPGKERELVASITQRGGSTYYADSVKGRFTISRDNAKNTVYLQMNSLKPADTAVYDCNARSWDSFHPHDYWGQGTLVTVSS
polyreactivity (PSR sort gate): high polyreactivity

QVQLVESGGGLVQAGGSLRLSSAASGRTFEVYAMGWYRQAPGKERELVATITYSGGITYYADSVKGRFTISRDNAKNTVYLQMNSLKPEDTAVYYPIGVGGDYDYWGQGTQVTVSS
polyreactivity (PSR sort gate): low polyreactivity

QVQLVESGGGLVQAGGSLRLSCAASGSTFTYYAMGWYRQAPGKERELVAAITGRGGRTYYADSVKGRFTISRDNAKNTVYLQMNSLKPEDTAVYYCARYPSSDTYWTKYDYWGQGTQVTVSS
polyreactivity (PSR sort gate): high polyreactivity

QVQLVESGGGLVQAGGILRLSCAASGLIIGEYDMGWYRQAPGKERELVAAMSDRGTSTYYADSVKGRFTISRDNAKNTVDLPMNSLKPEDTAVYYCATDRIYYYSWEYDYWGQGTQVTVSS
polyreactivity (PSR sort gate): low polyreactivity

QVQLVESGGGLVQAGGSLRLSCAASGSTFDVNAMGWYRQAPGKERELVAAISWNSGSTYYADSVKGRFTISRDNAMITVFLQMNSLKPEDTAVYYCAATYGTGRRSKYGYWGQGSQVTVSS
polyreactivity (PSR sort gate): high polyreactivity

QVQLVESGGGLVQAGGRLPLSCAASGSTYSVNAMGWYRQAPGKERELVAAITRSGGSTYYADSVKGRFTISRDNAKNTVYLQMNSLNPEDTAVYYCAAEIYPLGEYWGQGTQVTVSS
polyreactivity (PSR sort gate): low polyreactivity

QVQLVESGGGLVQAGGSLRLSCAASGITFDGYAMGWYRQAPGKESELVAGISWSGARSYYADSVKGRFTISRDNAKYTVYLHMNSLKPEDTAVYYCNKVSLRNHGGYDYWGQGTQVTVSS
polyreactivity (PSR sort gate): high polyreactivity

QVQLVESGGGLVQAGCSLRLTCAASGFIFYYNAMGWYRQAPGKQKELVAAISWSDGGTYYADSVKGRFTISRDNAKNTVSLQMNRLKPEDTAVYYFSGDIDNWSEYDYWGQGTQVTVSS
polyreactivity (PSR sort gate): low polyreactivity

QVQLVESGGGLVQAGGSLRLSCAASGITLGTYAMGWSRQAPGKERELVAGISTSGGSTYYADSVKGPFTISRDNAKNTVYLQMNSLKPEETAVYYCAKRRYGSGYYRYRGYDYWGQGTQVTVSS
polyreactivity (PSR sort gate): high polyreactivity

QVQLVESGGGLVQAGGSLRLSCAASGRIFSGSVMGWYRQAPGKVRELVAGITYRDGSTYYADSVKGRFTISRDNAKNTVYFQMNSLKPEDTAVYYCNADDYNDIPYDYWGQGTQVTVSS
polyreactivity (PSR sort gate): low polyreactivity
